T1: Ysh1;Mpe1 (Saccharomyces cerevisiae;Saccharomyces …, UniProt Q06224;P35728 1-779;1-441, |)
T1 sequence 1: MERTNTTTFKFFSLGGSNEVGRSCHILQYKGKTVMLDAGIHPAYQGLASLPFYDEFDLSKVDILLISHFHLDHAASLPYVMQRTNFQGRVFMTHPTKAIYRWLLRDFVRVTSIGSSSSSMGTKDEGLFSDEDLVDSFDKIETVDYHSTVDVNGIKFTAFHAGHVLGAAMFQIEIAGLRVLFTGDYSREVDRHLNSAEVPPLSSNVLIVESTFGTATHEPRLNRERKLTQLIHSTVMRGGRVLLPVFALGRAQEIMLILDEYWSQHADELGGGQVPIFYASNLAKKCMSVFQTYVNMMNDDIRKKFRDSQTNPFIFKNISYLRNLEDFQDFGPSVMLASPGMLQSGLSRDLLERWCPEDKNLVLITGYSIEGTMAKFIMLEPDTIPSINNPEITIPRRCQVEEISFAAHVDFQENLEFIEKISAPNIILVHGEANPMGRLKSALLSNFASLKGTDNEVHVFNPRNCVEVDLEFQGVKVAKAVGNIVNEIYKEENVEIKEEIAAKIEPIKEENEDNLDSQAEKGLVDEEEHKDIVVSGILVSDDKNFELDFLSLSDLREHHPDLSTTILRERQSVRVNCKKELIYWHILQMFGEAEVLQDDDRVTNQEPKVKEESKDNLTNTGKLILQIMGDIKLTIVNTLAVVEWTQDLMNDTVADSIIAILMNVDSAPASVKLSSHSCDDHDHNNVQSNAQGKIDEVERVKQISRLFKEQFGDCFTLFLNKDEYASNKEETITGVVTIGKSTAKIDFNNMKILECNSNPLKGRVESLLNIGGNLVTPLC
T1 sequence 2: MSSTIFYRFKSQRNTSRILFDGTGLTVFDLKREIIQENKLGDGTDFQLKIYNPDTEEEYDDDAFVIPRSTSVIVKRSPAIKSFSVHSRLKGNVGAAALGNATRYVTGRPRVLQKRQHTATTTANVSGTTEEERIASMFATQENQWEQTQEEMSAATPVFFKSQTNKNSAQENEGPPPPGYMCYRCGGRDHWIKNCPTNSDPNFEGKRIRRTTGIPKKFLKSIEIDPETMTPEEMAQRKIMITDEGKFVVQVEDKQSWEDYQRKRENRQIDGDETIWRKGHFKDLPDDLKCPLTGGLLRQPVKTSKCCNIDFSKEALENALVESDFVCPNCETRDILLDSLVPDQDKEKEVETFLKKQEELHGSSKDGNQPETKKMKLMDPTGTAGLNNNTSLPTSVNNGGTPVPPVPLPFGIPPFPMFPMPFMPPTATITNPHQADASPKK


How the values were obtained:
Ysh1;Mpe1 = molecular target: T1, Ysh1;Mpe1; assay: EMSA; EMSA: 50 nM RNA, 0.25-4.0 uM protein, protein diluted in 10 mM HEPES pH 7.9, 150 mM NaCl, 0.5 mM Mg(OAc)2, plus 1x loading dye (orange G, glycerol, EDTA); 30 min on ice; native 6% acrylamide/TBE PAGE; settings: protein: recombinant;recombinant; tags: ;3C-SII (C-terminal) in Ysh1-Mpe1 complexes; untagged in CPFcore; copies: 1;1; label: 5'-FAM
Ysh1;Mpe1;Yjr141w = Ysh1;Mpe1;Yjr141w (Saccharomyces cerevisiae;Saccharomyces …, UniProt Q06224;P35728;P47172 1-779;1-441;1-347, ||); assay: as above; settings: protein: recombinant;recombinant;recombinant; tags: ;3C-SII (C-terminal) in Ysh1-Mpe1 complexes; untagged in CPFcore;SII-3C (N-terminal) in Ysh1-Yjr141w; untagged in Ysh1-Mpe1-Yjr141w; copies: 1;1;1; label: 5'-FAM
Chain of Ysh1;Mpe1;Yjr141w (P47172 whole entry, chain 3 of 3, one chain of several): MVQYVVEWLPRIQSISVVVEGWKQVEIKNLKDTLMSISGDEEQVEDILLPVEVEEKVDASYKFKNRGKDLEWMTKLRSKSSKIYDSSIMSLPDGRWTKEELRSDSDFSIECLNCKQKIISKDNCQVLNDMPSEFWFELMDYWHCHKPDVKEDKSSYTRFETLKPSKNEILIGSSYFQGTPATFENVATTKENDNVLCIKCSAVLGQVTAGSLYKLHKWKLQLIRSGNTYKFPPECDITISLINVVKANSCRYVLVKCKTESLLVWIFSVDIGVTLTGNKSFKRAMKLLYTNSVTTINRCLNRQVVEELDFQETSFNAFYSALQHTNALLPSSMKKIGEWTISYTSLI

Row | Binder | binding result (Ysh1;Mpe1) | binding result (Ysh1;Mpe1;Yjr141w)
1 | UUUUUUUUUUUUUUU (ssRNA) [U15] | no binding | no binding
2 | AAAAAAAAAAAAAAA (ssRNA) [A15] | no binding | no binding
3 | CCCCCCCCCCCCCCC (ssRNA) [C15] | no binding | no binding
4 | GGGGGGGGGGGGGGG (ssRNA) [G15] | binds | binds

Reference: publication PMC6436931, “Activation of the Endonuclease that Defines mRNA 3′ Ends Requires Incorporation into an 8-Subunit Core Cleavage and Polyadenylation Factor Complex” (Molecular Cell, 2019)
